Data on one substance can be found in patent US20190328865A1.

The assay addresses dipeptidyl peptidase 4 (DPP4), cellular receptor on Huh-7 cells (human) (UniProt P27487). Briefly: cell-based or functional assay.
Sequence of UniProt P27487 (P27487 whole entry): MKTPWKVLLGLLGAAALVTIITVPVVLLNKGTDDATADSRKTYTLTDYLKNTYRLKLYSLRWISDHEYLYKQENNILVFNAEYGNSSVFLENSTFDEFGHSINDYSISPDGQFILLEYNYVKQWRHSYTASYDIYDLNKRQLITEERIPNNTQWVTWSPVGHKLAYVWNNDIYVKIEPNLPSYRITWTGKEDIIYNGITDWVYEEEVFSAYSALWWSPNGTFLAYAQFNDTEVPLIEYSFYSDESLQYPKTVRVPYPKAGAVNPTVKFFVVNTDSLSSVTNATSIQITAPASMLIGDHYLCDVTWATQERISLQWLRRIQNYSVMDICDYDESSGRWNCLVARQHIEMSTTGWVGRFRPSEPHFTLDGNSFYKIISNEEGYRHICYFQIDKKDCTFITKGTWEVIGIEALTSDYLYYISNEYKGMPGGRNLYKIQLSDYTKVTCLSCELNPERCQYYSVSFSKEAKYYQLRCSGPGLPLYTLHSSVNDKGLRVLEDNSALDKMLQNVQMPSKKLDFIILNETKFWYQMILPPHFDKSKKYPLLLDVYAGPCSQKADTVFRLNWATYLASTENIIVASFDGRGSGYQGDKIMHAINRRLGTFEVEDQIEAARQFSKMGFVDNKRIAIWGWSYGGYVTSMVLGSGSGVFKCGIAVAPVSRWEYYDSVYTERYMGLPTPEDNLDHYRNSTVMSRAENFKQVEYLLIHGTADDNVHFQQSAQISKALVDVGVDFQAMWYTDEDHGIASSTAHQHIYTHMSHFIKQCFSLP

The substance “S377-588-Fc (residues 377-588 of MERS-CoV S protein fused to Fc of human IgG) (Fc fusion)” registered an inhibition of CPE formation caused by MERS-CoV infection in Calu-3 cells of 3 µg/mL.
